For series [1], the target named is T1, MjAgo (Methanocaldococcus jannaschii) (UniProt Q58717).
T1 sequence: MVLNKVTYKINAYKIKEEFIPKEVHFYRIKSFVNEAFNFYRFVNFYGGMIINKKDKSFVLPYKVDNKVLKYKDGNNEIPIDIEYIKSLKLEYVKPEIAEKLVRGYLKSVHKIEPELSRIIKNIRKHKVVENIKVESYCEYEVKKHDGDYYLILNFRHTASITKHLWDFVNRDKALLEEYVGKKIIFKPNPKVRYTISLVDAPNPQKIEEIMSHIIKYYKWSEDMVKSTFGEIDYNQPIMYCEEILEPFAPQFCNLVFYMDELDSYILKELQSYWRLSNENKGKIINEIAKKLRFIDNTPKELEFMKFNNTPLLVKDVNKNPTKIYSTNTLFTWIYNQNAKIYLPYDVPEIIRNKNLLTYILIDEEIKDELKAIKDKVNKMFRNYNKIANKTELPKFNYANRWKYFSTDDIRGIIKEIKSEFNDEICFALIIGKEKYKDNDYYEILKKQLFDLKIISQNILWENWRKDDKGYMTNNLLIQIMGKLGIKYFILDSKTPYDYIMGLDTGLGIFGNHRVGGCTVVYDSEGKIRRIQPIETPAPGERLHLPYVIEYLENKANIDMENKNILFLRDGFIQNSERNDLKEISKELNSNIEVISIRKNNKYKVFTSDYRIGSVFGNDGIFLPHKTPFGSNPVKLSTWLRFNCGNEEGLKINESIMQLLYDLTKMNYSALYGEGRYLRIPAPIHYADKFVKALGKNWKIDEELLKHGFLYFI
As to the kind of experiment: equilibrium fluorescence titration. The following applies: 5'-phosphate on guide; Stopped-flow at 25 °C, 20 nM FAM-labelled guide, same buffers as titrations (buffer composition not in the material; hybridization buffer 15 mM Hepes pH 7.4 …).

In series [2] the target is T2, MjAgo (Methanocaldococcus jannaschii, UniProt Q58717 1-713).
T2 sequence: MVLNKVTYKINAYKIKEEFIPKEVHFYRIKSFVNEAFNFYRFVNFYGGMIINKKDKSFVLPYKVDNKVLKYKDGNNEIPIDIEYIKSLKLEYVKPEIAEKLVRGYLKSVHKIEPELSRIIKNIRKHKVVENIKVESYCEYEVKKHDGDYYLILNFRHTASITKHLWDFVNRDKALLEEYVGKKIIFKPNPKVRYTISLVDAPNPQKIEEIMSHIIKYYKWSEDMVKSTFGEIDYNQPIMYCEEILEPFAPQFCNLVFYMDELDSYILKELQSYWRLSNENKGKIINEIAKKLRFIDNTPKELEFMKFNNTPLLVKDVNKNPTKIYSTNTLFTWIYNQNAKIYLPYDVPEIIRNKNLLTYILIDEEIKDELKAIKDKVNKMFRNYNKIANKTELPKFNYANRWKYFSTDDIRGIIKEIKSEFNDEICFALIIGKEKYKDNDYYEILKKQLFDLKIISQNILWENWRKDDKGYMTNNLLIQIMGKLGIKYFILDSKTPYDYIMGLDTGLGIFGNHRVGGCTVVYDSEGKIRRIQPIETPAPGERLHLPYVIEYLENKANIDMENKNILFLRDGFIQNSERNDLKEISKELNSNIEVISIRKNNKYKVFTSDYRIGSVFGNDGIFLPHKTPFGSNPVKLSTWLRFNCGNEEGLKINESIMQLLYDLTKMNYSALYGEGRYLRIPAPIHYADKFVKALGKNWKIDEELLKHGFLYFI
Briefly: stopped-flow fluorescence; two-step, third phase undetectable; k2 0.018 s-1; Kd n.d.; Stopped-flow at 25 °C, 20 nM FAM-labelled guide, same buffers as titrations (buffer composition not in the material; hybridization buffer 15 mM Hepes pH 7.4, 50 mM K-acetate, 1 mM Mg-acetate). The following applies: protein: recombinant; partially mismatched; guide preloaded on Ago, target added.

In series [3] the target is T2, MjAgo. Briefly: equilibrium fluorescence titration; target binding to preformed MjAgo-guide DNA; Stopped-flow at 25 °C, 20 nM FAM-labelled guide, same buffers as titrations (buffer composition not in the material; hybridization buffer 15 mM Hepes pH 7.4, 50 mM K-acetate, 1 mM Mg-acetate). The following applies: protein: recombinant; label: C6-linked 5/6-FAM at guide T14; guide preloaded on Ago, target added; 3' overhang 2 nt on both strands.

Series [4] has as its target T2, MjAgo. As to the kind of experiment: equilibrium fluorescence titration; Stopped-flow at 25 °C, 20 nM FAM-labelled guide, same buffers as titrations (buffer composition not in the material; hybridization buffer 15 mM Hepes pH 7.4, 50 mM K-acetate, 1 mM Mg-acetate). The following applies: protein: recombinant; label: C6-linked 5/6-FAM at T14.
The target of series [5] is hAgo2 (human, UniProt Q9UKV8 1-859). As to the kind of experiment: stopped-flow fluorescence; three-step; k1 0.1e8 M-1 s-1; Kd n.d.; Stopped-flow at 25 °C, 20 nM FAM-labelled guide, same buffers as titrations (buffer composition not in the material; hybridization buffer 15 mM Hepes pH 7.4, 50 mM K-acetate, 1 mM Mg-acetate). The following applies: protein: recombinant; label: C6-linked 5/6-FAM at T14.
Chain of hAgo2 (Q9UKV8 whole entry): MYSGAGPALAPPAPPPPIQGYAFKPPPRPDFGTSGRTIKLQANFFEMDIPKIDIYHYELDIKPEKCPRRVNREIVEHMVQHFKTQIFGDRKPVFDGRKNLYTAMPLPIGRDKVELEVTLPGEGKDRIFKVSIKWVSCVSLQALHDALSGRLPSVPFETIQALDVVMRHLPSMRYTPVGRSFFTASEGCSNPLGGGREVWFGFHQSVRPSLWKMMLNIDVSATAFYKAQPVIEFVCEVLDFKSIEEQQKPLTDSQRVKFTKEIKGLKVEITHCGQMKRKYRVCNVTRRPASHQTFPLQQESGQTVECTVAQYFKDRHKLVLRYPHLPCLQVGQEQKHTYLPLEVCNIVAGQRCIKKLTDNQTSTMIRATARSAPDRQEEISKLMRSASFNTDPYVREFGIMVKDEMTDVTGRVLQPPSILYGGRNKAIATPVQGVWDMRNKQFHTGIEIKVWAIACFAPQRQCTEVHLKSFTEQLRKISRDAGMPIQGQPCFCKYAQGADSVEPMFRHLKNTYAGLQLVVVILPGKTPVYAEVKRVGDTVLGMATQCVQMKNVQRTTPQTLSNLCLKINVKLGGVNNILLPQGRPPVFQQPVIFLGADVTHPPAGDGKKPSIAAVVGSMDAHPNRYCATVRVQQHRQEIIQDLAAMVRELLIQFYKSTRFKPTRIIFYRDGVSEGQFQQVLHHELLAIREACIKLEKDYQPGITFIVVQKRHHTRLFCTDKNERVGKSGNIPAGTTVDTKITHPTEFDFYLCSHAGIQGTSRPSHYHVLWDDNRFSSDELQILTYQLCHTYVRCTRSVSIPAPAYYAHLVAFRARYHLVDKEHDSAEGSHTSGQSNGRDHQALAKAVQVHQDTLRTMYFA

For series [6], the target named is T3, MjAgo Mid mutant (Tyr442Ala) (Methanocaldococcus jannaschii, UniProt Q58717 1-713, Y442A).
T3 sequence: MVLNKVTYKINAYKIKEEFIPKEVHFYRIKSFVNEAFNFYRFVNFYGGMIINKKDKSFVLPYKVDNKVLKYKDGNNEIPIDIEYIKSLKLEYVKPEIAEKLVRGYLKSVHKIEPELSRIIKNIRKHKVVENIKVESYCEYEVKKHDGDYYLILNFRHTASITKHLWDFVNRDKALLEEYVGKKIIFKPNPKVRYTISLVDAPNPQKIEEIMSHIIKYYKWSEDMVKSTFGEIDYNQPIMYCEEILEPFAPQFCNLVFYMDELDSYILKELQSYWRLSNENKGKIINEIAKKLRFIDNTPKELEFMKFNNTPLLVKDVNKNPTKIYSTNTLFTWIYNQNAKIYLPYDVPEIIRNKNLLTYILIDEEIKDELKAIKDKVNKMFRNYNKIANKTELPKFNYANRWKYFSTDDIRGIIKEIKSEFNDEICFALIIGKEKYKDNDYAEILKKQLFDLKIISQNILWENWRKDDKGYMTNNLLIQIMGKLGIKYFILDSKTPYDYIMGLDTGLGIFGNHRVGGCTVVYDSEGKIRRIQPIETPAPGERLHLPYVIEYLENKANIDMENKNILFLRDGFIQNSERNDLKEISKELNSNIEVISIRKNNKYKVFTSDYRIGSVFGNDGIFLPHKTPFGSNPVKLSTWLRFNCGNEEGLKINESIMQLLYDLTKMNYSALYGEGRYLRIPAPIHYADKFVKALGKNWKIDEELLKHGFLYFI
Briefly: stopped-flow fluorescence; two-step, Mid binding phase missing; k3 0.002 s-1; Kd n.d.; Stopped-flow at 25 °C, 20 nM FAM-labelled guide, same buffers as titrations (buffer composition not in the material; hybridization buffer 15 mM Hepes pH 7.4, 50 mM K-acetate, 1 mM Mg-acetate). The following applies: protein: recombinant; label: C6-linked 5/6-FAM at T14.

Broadly, the Kd is the constant that tells how readily two partners part at equilibrium. In series [1], “TAGAGGTACGTGCTGAGGCTT / GCCTCAGCACGTACCTCTATT [D-as2bFAM/D-s2b (ds siDNA, D-si2bFAM)]” registered a Kd of 103 nM.

B1: D-as2bFAM guide DNA / 3'-mismatched target DNA (D-s2bmm) (dsDNA)
DNA 1: TAGAGGTACGTGCTGAGGCTT
DNA 2: GCCTCAGCAGCGGGAATATTT
modifications: 5'-phosphate on guide
With B1, the binding result in series [2] is recorded as “binds”.

B2: D-as2bFAM guide DNA / D-s2b target DNA (dsDNA)
DNA 1: TAGAGGTACGTGCTGAGGCTT
DNA 2: GCCTCAGCACGTACCTCTATT
modifications: 5'-phosphate on guide
B2: in series [3], the dissociation constant Kd is 0.5 ± 0.04 nM.

With TAGAGGTACGTGCTGAGGCTT (ssDNA, 5'-phosphate) [D-as2bFAM (ss guide DNA)], the equilibrium dissociation constant (Kd) in series [4] is 3.4 ± 0.4 nM. In addition, the binding result in series [5] and in series [6] was “binds” each time.

These data come from PMC5065165, “Mechanistic Insights into Archaeal and Human Argonaute Substrate Binding and Cleavage Properties”.
